Results published in patent publication US20240182953, “METHODS AND COMPOSITIONS FOR DETECTING A TARGET RNA” (The Regents of the University of California, published 2024).
Where a chain is given by its changes, count along the chain named.

T1: LbuC2c2-dHEPN1/dHEPN2 (Leptotrichia buccalis, UniProt C7NBY4 SEQ:1-1159, R472A,H477A,R1048A,H1053A)
T1 sequence: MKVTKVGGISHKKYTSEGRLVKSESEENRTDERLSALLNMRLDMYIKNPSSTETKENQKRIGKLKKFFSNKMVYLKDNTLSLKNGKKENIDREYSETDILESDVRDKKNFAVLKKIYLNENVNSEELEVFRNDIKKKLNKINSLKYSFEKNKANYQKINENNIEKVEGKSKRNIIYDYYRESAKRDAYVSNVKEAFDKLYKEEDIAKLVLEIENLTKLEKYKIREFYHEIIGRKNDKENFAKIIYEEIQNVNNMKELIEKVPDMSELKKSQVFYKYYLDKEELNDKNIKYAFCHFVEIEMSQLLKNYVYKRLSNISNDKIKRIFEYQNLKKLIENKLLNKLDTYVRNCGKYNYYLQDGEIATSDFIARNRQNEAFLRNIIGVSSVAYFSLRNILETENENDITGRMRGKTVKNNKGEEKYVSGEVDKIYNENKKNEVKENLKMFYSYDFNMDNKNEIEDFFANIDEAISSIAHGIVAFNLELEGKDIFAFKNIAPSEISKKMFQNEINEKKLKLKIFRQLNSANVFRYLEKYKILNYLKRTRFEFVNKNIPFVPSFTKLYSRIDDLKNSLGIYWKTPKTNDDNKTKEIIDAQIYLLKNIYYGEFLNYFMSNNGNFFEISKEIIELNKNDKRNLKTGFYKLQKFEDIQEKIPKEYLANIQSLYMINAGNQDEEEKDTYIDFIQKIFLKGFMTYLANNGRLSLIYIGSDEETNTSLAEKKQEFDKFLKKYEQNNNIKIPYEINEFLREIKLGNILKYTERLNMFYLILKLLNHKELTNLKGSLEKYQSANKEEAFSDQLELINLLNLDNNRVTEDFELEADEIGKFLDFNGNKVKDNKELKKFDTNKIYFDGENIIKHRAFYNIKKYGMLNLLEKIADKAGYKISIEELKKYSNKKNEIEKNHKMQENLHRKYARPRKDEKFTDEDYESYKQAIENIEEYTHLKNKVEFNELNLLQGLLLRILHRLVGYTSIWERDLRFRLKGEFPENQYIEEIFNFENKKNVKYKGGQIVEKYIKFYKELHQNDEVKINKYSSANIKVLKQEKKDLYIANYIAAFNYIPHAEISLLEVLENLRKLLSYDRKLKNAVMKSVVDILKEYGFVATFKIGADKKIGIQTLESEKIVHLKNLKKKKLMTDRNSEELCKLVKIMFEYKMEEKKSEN

T2: LbuC2c2-R1079A (Leptotrichia buccalis, UniProt C7NBY4 SEQ:1-1159, R1079A)
T2 sequence: T1 sequence with A472R, A477H, A1048R, A1053H, R1079A

B1: crRNA-A_GG (mature) ; target A ssRNA (ssRNA ; ssRNA)
RNA 1: GGCCACCCCAAAAAUGAAGGGGACUAAAACAGGGGCAGAGAUGAUGACCCU
RNA 2: GGCUCAUUUGCAGGGUUUAGCCAAAAGGGUCAUCAUCUCUGCCCCCUCUGCUGAUGCCCC
B2: crRNA-A_GA (mature) (ssRNA)
RNA: B1 RNA 1 with G2A

Columns and labels:
[1] = target: T1, LbuC2c2-dHEPN1/dHEPN2; assay: EMSA; ssRNA A, no Mg listed in EMSA buffer, 37 C; which A variant was used not stated; conditions: tags: His6-MBP removed by TEV, label: 5'-32P, hairpin
Description: (§1) The quantified data were fit to standard binding isotherms. Error bars represent the standard deviation from three independent experiments. […] Three independent experiments were conducted as described in the Methods. The gel was cropped for clarity. c, Quantified binding data from (b) were fitted to standard binding […]. Error bars represent the standard deviation from three independent experiments. […] The quantified data were fit to standard binding isotherms. Error bars represent the standard deviation from three independent experiments. Measured dissociation constants from three independent experiments (mean±sd) were 4.65±0.6 nM (LbuC2c2-WT) and 2.52±0.5 nM (LbuC2c2-R1079A). It is of note that these binding affinities differ from panel a. This difference is accounted for in a slight difference in the 5′ sequence of the guide with panel a guides beginning with a 5′-GGCCA . . . and panel d 5′-GACCA. While the native sequence guide (5′-GACCA) binds tighter to LbuC2c2, no difference is seen in the RNA targeting efficiencies of these guide variants (Extended Data FIG. 6c).
Electrophoretic mobility-shift assays. […]

[2] = target: T2, LbuC2c2-R1079A; assay: filter; retains crRNA binding; Kd in truncated legend; conditions: tags: His6-MBP removed by TEV; label: 5'-32P; hairpin
Description: as §1
crRNA filter-binding assays. Filter binding assays was carried out in RNA processing buffer (20 mM HEPES pH 6.8, 50 mM KCl, 5 mM MgCl₂, […], 0.01% Igepal CA-630 and 5% glycerol). LbuC2c2 was incubated with radiolabeled crRNA (<0.1 nM) for 1 hr at 37° C. […]

Binder	Kd [1]	binding result [2]
B1	1.62 nM	
B2		binds
